In article PMC9982066, “Inhibition of Ehrlichia chaffeensis infection by cell-permeable macrocyclic peptides that bind type IV secretion effector Etf-1” (PNAS Nexus, 2023) one finds Kd data, which are given here for 13 molecules.

Starred links: 1 amine or outer side, 2 acyl side, 3 side chain; linkers in the order of their positions; H or OH if unused. Positions of bridges follow the written chain, without caps; N, C: chain ends. Non-standard residues stand in square brackets, D forms with d. No end group written: not given here. Trimesoyl = O=C(c1cc(C(=O)[*:2])cc(C(=O)[*:3])c1)[*:1]; Phe(4-Cl) = N[C@@H](Cc1ccc(Cl)cc1)C(=O)O; Phe(4-F) = N[C@@H](Cc1ccc(F)cc1)C(=O)O; 2Nal = N[C@@H](Cc1ccc2ccccc2c1)C(=O)O; d2Nal = N[C@H](Cc1ccc2ccccc2c1)C(=O)O; βAsp = O=C(O)[C@H](CC(=O)[*:2])N[*:1]; Nle = CCCC[C@H](N)C(=O)O; Orn = NCCC[C@H](N)C(=O)O; Dap = NC[C@H](N)C(=O)O; TMA = not defined here; βAla = NCCC(=O)O

First the molecules themselves.
B1: macrocyclic peptide B22, FAM-labelled (peptide)
chain: [dV][Orn][dN]H[dA][Dap]F[d2Nal][dR]R[dR]R[Dap]-{βAla-βAla-Lys(FAM)}
modifications: linker 6-13 via TMA; reading uncertain; also: TMA third attachment point not given here
B2: biotinylated full-length Etf-1 protein (natural protein, E. chaffeensis, UniProt Q2GG12 1-380, looked up)
chain: MLTFLKKGANVVIKAAITPTTSKLPHQESVGKYLGGMLKSIIPGQKDPAEKHFDLRMHNRTHKLGVELPARTRIDGHEQEVALKVPSYKLPYQTLQKFAAWQEQDKEGEVEETKKDTLTSLINPVSATQEFIRSNTADKYFEKLKALDQQLKEIGGKVTVNSTPGRYKQGLTIELDVSNKSRIAIEKDVRLVLEGLGINDEELVKTFTKRLYKSSTDKKMSSADIHTEKTSSNTDSKDNSNNQDHDIVSPAKRHGSDTVSAVQRQGDDILSSSQEQSSKTGSPTNSTGISNSDFSLTNPQNMPYSRTPMQSSQMLQQLQNQILMQQKPERIFSQAMPTVMQQEIDEIAEDLCQGLNEGPTQGNSNNIGKHFSNPGKVHAR
modifications: biotin (two equivalents of NHS-PEG4-D-Biotin, pH 8.0)
notes: source: E. coli BL21(DE3), purified (HisPur Cobalt resin, size exclusion chromatography), then biotinylated
B3: FAM-labeled macrocyclic peptide B13 (peptide)
chain: EHFEHAXFXRRRX
modifications: not fully specified; carboxyfluorescein (FAM) at the C-terminus through a β-Ala-β-Ala-Lys linker
B4: FAM-labeled macrocyclic peptide B17 (peptide)
chain: XFGDYXFXRRRRX
modifications: not fully specified; carboxyfluorescein (FAM) at the C-terminus through a β-Ala-β-Ala-Lys linker
B5: FAM-labeled macrocyclic peptide B7-133-5 (peptide)
chain: YDHDHLXFXRRRRX
modifications: not fully specified; same peptide as Dm35 (Table S3); bicyclic via TMA to Dap7 and Dap14; D2=isoAsp, D-Leu6, X7/X14=Dap, F8=4-chloro-Phe, X9=D-2-Nal, D-Arg10, D-Arg12; linker Lys(FAM) left out
B6: FAM-labeled macrocyclic peptide B22 (peptide)
chain: VXNHAXFXRRRRX
modifications: not fully specified; carboxyfluorescein (FAM) at the C-terminus through a β-Ala-β-Ala-Lys linker

The first assay concerns the target T1, Ehrlichia translocated factor-1 (Etf-1) (Ehrlichia chaffeensis, UniProt Q2GG12 1-380). Description: fluorescence polarisation. Conditions: both partners purified. In general terms: Polarisation of emitted light reports the rotation of a fluorescent probe.
What is called Kd is the equilibrium constant for the complex coming apart. Regarding QHS[dV][Dap][dF][2Nal]R[dR]R[Dap] (linker 5-11 via TMA; not fully specified (C-terminus); reading uncertain) [macrocyclic peptide C6, FAM-labelled], the Kd is over 25 µM. Same read-out and setting: the value for IDA[Nle]H[Dap]F[2Nal]RRR[Dap] (linker 6-12 via TMA; not fully specified (C-terminus); reading uncertain) [macrocyclic peptide C9, FAM-labelled] was over 25 µM; that for IHA[Orn][dK][Dap]F[2Nal]RRR[Dap] (linker 6-12 via TMA; not fully specified (C-terminus); reading uncertain) [macrocyclic peptide C19, FAM-labelled] was over 25 µM. B1: the dissociation constant Kd was over 25 µM.

For the next assay, the target named is T2, recombinant full-length BECN1 protein (Beclin 1) (human, UniProt Q14457 1-450).
T2 construct: also called ATG6; source: size exclusion chromatography
T2 sequence (Q14457 whole entry): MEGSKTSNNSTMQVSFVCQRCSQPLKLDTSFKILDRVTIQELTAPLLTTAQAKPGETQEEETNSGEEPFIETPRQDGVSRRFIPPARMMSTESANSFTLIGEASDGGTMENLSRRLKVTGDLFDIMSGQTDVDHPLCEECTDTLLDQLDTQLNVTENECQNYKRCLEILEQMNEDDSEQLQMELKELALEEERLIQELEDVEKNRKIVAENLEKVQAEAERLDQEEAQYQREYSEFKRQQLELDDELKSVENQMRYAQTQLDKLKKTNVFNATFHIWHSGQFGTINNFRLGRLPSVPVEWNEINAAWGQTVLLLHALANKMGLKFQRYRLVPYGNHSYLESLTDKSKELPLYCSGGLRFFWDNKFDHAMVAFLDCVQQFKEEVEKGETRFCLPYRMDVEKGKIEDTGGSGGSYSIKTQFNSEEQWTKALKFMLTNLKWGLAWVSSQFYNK
Description: SPR; OpenSPR; biotinylated rEtf-1 (1 μM) immobilised on a streptavidin sensor chip, BECN1 dilutions as analyte; 20 mM Tris pH 8.0, 100 mM NaCl, 0.05% Tween 20; 30 µL/min. To be noted: both partners purified. (Surface plasmon resonance follows binding to a sensor surface in real time, without labels.)
As for B2, the Kd was 0.06 ± 0.001 µM.

The next assay addresses Ehrlichia translocated factor-1 (Etf-1), recombinant 6×His-Etf-1 fusion protein (E. chaffeensis, UniProt Q2GG12 1-380). The assay can be described thus: fluorescence polarisation. To be noted: both partners purified.
In the case of B3, the Kd is over 25 µM. As for B4, the Kd is over 25 µM. The same measure, in the same setting: in the case of B5 it was over 10 µM; in that of B6, over 25 µM.

The next assay has as its target T1, Ehrlichia translocated factor-1 (Etf-1). Description: fluorescence polarisation. To be noted: both partners purified. The source holds these as a separate data set.
Y[βAsp]HDH[dL][Dap][Phe(4-Cl)][d2Nal][dR]R[dR]R[Dap]-{Lys(FAM)} (linker N-7-14 via Trimesoyl; not fully specified (N-terminus)) [macrocyclic peptide B7-133-5, FAM-labelled] returned a Kd of over 10 µM. Still for that read-out and setting: the value for YH[d2Nal]QS[Phe(4-F)][dL][Dap][Phe(4-Cl)][d2Nal][dR]R[dR]R[Dap]-{Lys(FAM)} (linker N-8-15 via Trimesoyl; not fully specified (N-terminus)) [macrocyclic peptide B7-131-2, FAM-labelled] was 8.8 ± 0.9 µM. Same read-out and setting: in the case of Y[Nle][dE]QG[dL][Dap][Phe(4-Cl)][d2Nal][dR]R[dR]R[Dap]-{Lys(FAM)} (linker N-7-14 via Trimesoyl; not fully specified (N-terminus)) [macrocyclic peptide B7-133-4, FAM-labelled] it was 6.5 ± 0.1 µM; in that of Y[dA]D[dY][dA][dL][Dap][Phe(4-Cl)][d2Nal][dR]R[dR]R[Dap]-{Lys(FAM)} (linker N-7-14 via Trimesoyl; not fully specified (N-terminus)) [macrocyclic peptide B7-133-2, FAM-labelled], 8.2 ± 1.2 µM.
